Experiments:
[1] = molecular target: T1, human heterodimeric single-chain CD3γδ extracellular domain (produced in-house) (human); assay: SPR; human single-chain CD3 ECD immobilised, scDb injected
T1 chain: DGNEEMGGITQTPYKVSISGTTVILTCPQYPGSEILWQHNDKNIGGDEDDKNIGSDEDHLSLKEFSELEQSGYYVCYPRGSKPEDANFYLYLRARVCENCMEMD

[2] = molecular target: T2, human IL23R on IL-23R expressing cell lines (DLD-1, SW480, TF-1) (human, UniProt Q5VWK5 24-629); assay: cell-based or functional assay
T2 sequence (looked up): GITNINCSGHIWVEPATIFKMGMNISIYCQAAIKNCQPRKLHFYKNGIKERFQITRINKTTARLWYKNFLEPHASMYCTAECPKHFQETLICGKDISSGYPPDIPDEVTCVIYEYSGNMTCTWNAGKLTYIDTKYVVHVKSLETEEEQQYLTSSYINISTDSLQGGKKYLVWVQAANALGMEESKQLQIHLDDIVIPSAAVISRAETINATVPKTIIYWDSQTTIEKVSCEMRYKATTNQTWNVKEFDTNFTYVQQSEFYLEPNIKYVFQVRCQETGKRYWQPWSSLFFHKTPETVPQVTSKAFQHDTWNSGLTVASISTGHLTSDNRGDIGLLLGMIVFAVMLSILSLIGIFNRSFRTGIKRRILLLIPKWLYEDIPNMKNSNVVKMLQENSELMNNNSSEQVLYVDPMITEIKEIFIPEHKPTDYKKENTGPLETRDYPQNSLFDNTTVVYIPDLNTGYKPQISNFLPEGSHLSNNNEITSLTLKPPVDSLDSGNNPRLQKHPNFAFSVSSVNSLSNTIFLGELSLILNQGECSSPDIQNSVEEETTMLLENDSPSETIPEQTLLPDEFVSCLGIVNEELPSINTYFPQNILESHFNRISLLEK

[3] = molecular target: T3, Human IL23R extracellular domain (ECD) (human, UniProt Q5VWK5 24-355); assay: SPR; human IL23R ECD immobilised, scDb injected
T3 construct: extracellular domain; also called human IL23R ECD
T3 sequence (looked up): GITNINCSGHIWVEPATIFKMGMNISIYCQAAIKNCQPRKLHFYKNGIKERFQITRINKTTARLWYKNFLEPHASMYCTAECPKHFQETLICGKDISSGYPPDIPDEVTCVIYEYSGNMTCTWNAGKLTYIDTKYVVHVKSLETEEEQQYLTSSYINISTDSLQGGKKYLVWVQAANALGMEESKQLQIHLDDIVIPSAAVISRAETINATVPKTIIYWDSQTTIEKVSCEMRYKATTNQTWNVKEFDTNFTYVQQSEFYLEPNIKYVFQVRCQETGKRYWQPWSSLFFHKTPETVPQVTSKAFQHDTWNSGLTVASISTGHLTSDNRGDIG
Procedure: [000154] For affinity measurements to IL23R, human IL23R extracellular domain (produced on request by Trenzyme) was immobilized on a sensor chip (SPR-2 Affinity Sensor High Capacity Amine, Sierra Sensors) using a standard amine-coupling procedure. Two-fold serial dilutions of scDbs ranging from 90 to 5.6 nM were injected into the flow cells for 3 min and dissociation of the protein from the immobilized IL23R on the sensor chip was allowed to proceed for 720 sec. After each injection cycle, surfaces were regenerated with a 1 min injection of 10 mM Glycine-HCl pH 2.0. The apparent dissociation (kd) and association (ka) rate constants and the apparent dissociation equilibrium constant (KD) are calculated with the MASS-1 analysis software (Analyzer, Sierra Sensors) using one-to-one Langmuir binding model.

B1: PRO165 (bispecific antibody)
chain: DIQMTQSPSSLSASVGDRVTITCQASENIYSFLAWYQQKPGKAPKLLIYSASKLAAGVPSRFSGSGSGTDFTLTISSLQPEDFATYYCQQTNRYSNPDIYNVFGQGTKLTVLGGGGGSEVQLVESGGGLVQPGGSLRLSCAASGFPLSSYAMIWVRQAPGKGLEWIGMILRAGNIYYASWVKGRFTISRDNSKNTVYLQMNSLRAEDTAVYYCARRHYNREGYPIGIGDLWGQGTLVTVSSGGGGSGGGGSGGGGSGGGGSDIQMTQSPSSLSASVGDRVTITCQSSESVYNNKRLSWYQQKPGKAPKLLIYTASSLASGVPSRFSGSGSGTDFTLTISSLQPEDFATYYCQGEFTCSNADCFTFGQGTKLTVLGGGGGSEVQLVESGGGLVQPGGSLRLSCAASGIDFNSNYYMCWVRQAPGKGLEWIGCIYVGSHVNTYYANWAKGRFTISRDNSKNTVYLQMNSLRAEDTAVYYCATSGSSVLYFKFWGQGTLVTVSS
notes: also called anti-IL23RxCD3ε scDb
Kd [1]: 11.6 nM
koff [1]: 0.00126 s⁻¹
kon [1]: 109000 M⁻¹ s⁻¹
EC50 of specific target cell lysis [nM], DLD-1 [2]: 45.4 nM
EC50 of specific target cell lysis [nM], SW-480 [2]: 71.7 nM
EC50 of specific target cell lysis [nM], TF-1 [2]: 39.8 nM
Kd [3]: 0.182 nM

— patent publication US20150329637A1 (NUMAB, published 2015)
